Consider one molecule from patent US20240115683A1 (ULTRAGENYX PHARMACEUTICAL, published 2024).

This assay deals with T1, human FGF23 (fibroblast growth factor 23) (human, UniProt Q9GZV9 25-251).
T1 construct: In the total FGF23 ECLA the FGF23 was recombinant human FGF23 (standards) and endogenous FGF23 in patient serum (samples); It may include the signal peptide; also called recombinant human FGF23; rhFGF23
T1 sequence: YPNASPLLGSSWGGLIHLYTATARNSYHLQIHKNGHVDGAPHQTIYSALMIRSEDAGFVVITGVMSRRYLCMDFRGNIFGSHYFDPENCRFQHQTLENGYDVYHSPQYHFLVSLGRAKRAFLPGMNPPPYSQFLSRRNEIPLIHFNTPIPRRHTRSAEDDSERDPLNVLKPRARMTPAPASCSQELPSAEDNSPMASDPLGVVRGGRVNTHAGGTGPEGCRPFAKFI
Put plainly: total FGF23 ECLA; rhFGF23 standards and serum samples incubated with excess KRN23, complex detected. The procedure:
The mean values of serum total intact FGF23 levels at Baseline were recorded. The total FGF23 ECLA assay measures endogenous FGF23 in the presence of KRN23, whether complexed or unbound in serum. Standards (recombinant human FGF23 [rhFGF23]) and samples are incubated with excess amounts of KRN23 in a buffer matrix then detected by the assay. The assay measures the KRN23/FGF23 complex, which represents all endogenous FGF23 in the sample.

B1: KRN23 (antibody, human IgG1, kappa, V domains shown)
VH: QVQLVQSGAEVKKPGASVKVSCKASGYTFTNHYMHWVRQAPGQGLEWMGIINPISGSTSNAQKFQGRVTMTRDTSTSTVYMELSSLRSEDTAVYYCARDIVDAFDFWGQGTMVTVSS
VL: AIQLTQSPSSLSASVGDRVTITCRASQGISSALVWYQQKPGKAPKLLIYDASSLESGVPSRFSGSGSGTDFTLTISSLQPEDFATYYCQQFNDYFTFGPGTKVDIKR
notes: also called anti-FGF23 antibody KRN23; recombinant fully human monoclonal IgG1 antibody
Turning to B1, the binding result is listed as “binds”.
